Non-standard residues stand in square brackets, D forms with d. 1Nal = N[C@@H](Cc1cccc2ccccc12)C(=O)O

For this test, the target named is T1, Full length IDOL (1–445) (UniProt Q8WY64 1-445, NT-647-NHS dye (only the labelled copy in the MST assays)).
T1 chain: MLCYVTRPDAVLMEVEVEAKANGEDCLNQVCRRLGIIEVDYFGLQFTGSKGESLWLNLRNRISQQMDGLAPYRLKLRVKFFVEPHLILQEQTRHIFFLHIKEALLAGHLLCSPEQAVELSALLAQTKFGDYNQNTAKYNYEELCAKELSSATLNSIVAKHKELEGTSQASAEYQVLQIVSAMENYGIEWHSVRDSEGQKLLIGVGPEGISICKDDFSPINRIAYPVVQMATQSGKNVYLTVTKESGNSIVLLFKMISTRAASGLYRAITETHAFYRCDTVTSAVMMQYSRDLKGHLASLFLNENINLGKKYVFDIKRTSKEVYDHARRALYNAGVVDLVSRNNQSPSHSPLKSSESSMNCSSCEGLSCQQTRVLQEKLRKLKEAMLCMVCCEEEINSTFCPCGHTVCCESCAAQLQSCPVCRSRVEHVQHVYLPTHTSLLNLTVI
In words: MST.

Turning to cyclo(CF[1Nal]LYT) [RINGPep1 analogue containing 3-(1-naphthyl)-L-alanine], binding was put at a Kd of 6.3 µM.

B1: RINGPep2 (cyclo-CF-Cha-LYT) (peptide)
chain: CFXLYT
HELM: PEPTIDE1{C.F.[Cha].L.Y.T}$PEPTIDE1,PEPTIDE1,1:R1-6:R2$$$V2.0
SMILES: CC(C)C[C@@H]1NC(=O)[C@H](CC2CCCCC2)NC(=O)[C@H](Cc2ccccc2)NC(=O)[C@H](CS)NC(=O)[C@H]([C@@H](C)O)NC(=O)[C@H](Cc2ccc(O)cc2)NC1=O
With B1, the dissociation constant Kd (usually the equilibrium constant for the complex coming apart) turned out to be 6.6 µM.

For the origin of these results see paper PMC6050537 (2018).
